These results are taken from a protein production outcome set (Wang et al. 2014).

This data set in a line: label from the status in PepcDB records.
Take “MLGRAFQDLNRLRQISAAMARHGFGAYLERMRLRDVLGRDAPPPGQPLPPPDRTTAARFRTMLGELGPTFIKLGQLLSSRPDVLPSHWVDELEKLQDACPPVGVAEIREEIERGLGRPVEALFAALDPVPLASASIAQVHRATTHEGVQVVVKVQRPRIREQIESDLALLHDLAGLLEAVVEETGIYTPTGVMEEFDRTIHEELDFSNEARNATAMYETSAGREFLVIPRVHKALSCDTVLTLDYVEGVKVSDVTAEAGFDLEQVARNVIEASFRQLFEDGLFHGDPHPGNILVLPGNRIALLDFGLVGRLSRVQQEALVTLIVAVALRDPETVARVLNRIGVPDARAPITEFREDIRVILDRYLGLRLDEIRSATLLRDLLDLAIRHRIRIPKEYAVLAKASVTIEGIIRRLYPKLDILEVGLPYAKELLLSRFNPSDASGLVMRALLKLQGLAEDVPTQLSQILVDLEGGKFRVNVASDAIDRIGGHVRALGVLLFLGLLAAGLTVGGLVVLAGGEGLLGGLALGAAALLCAFAAAYHLATLRMRKISLRRWLKR”: the protein production result is given as “failed”.

With “MLGYVWLVEGRELMRWQELCTPAVICVGGVDPSAGAGITADVRTAENMGVRAYTVATAITFQGSGSYRGERWVDSADIIRQIESLSAEMEPAVAKIGLIRDSDTLSLVVDCLKKVFPSIRIVWDPVLRASADSSAGQADRFNLEDITALSRIDFITPNLPEARHLLGCEPDDETLLDFYRRSGVGLVLKGGHAGESVVTDRIVYDGRCEALRLLRGGTGKHGTGCAHSTAFAAALALEQEPFTAAGMAQLYVSRLRERASGLLAMHKDLPVDPVVRLMSEIDLQFITHRQPDLSELEEAEAVCRIGVRWVQLRMKEASDEEMLHTACAVKAVCRHHGALFVVNDRVEIARQVDADGVHLGKEDMAIVEARRILGSNKIIGRTCNTMEDVRRAYAEGADYVGIGPYRYTETKQRLAPVLGLEGYKAIAACMQAEGIRLPAFAIGGIEDADIPLIRDCGIGGIAVSGSLIRKIKKNLEHHHHHH”, the protein production entry is “failed”.

Take “MLHIDDAMIEDAVTPQAAQEVLHAAFLDFGRGSAAMQRRVRTEAGGVKLSTLGAVIPGQGVAGAKVYTTIKGQFQFVILLFSAADGRPLATCDAGTLTRKRTAACTVLAAGALARPRSSVLGLFGAGTQGAEHAAQLSARFALEAILVHDPYASPEILERIGRRCGVPARMAAPADIAAQADIVVTATRSTTPLFAGQALRAGAFVGAIGSSLPHTRELDDEALRRARAVVVEWREQTLSEAGDLVLAAPDTGLDAKVVELADVLAGRAAARQADEDIVIYKSVGVGLEDVALAGYAYRRLAAQRGWPAP”: the protein production result is reported as “not failed”.

Regarding “MLHRSPKRMVAVALFLACLVISLTTVTFAAPAPTIQIQNPMVEGIRSPLRIASDSLGGVYVSDSLAKGVLKYDVVGHLAQTIKTAAPPQGIAVASDGTLLVGQGTYVSMYSAAGQEIGKLGAGEGQFKMADGITVDDDGSIYVVDCLDNSVQIFNAAGSFVKKFGSFGTTPGKFSTPSGIAFEKVSRQVAVVDTRTGRIQFFDKTGAYVRTIGSFGTNPLRFTAPQGVSFEYSSGSTPVLKRMYVVDTFQSTVQAIDPAATPVFLSYIGTYGSGNGKLMVPSDVLFDQATGRLLVVNGFGNVSVYGVDGGGVSVAVDLIPPALTINPVVSPFMSPTLDLSGTVEAGARLTIATGGTTTVGAISFPTPTTWQTTLSGFAPGGTTITVTARDAANNATNQSVTVSYLQSGPMLTMEPLPTFTADTFQQLSGLVDPGSVVTVTNATTGASAKALVFGNTWSYRLPLAAGANSITVKAEKSMSAATTVSATTTLDAIPPALAVSALADGSYTSGQVQNIQVMVTDANLDVVTLNGQQIVPVNGSYSTAITLKPGPNVIMAAAVDLAGNVTTDIRTIIYDGTRPVVSFTTPAEGTYVTSDHVSVSGIVDETAVVTVAGLPARMDGTSWSADVPLVPGMNTIDVVAVDLAGNVGSVKRTVTYDTEAPALVVSAPSQDVVTNRPTFGFAGNVTDPSPVTLTAEVDGAPVAVTVTDGSFTLAVTFANEGSHAVTFTATDAAGNASRVTRTVIYDGTAPALTLDPVNTPYPSVLTGTVEAGAAVTVEDRNGSAGTVTVSGEKWNAALEVGGYDAASLAVRATDVAGNSTVRSLVVNVPDGDLNGDGAVTVHDVILALRMFTRQMVPTANQLAHGDIGPLYQGKAKPNGVVDLVDAILIMRKALGMPSW”, the protein production entry is “failed”.

On to “MLIEIPNVFSKQEVSHLREQLDARRWIDGNQTSGAMATTRKRNQQLDKDDPVAVALGQQIMDRLLAHPQFVSAALPLQFYPPLFNRYQGGETFGYHIDNAIRSTPDGMIRTDLSATLFLSEPENYQGGELVIQDTYGQQSIKLSAGSLVLYPSSSLHQVTPVLSGERTAAFMWLQSMVRDEGQRRLLFQLDQSIQSLTAQTAAEQELFNLSGVYHNLLRRWSEL”, for which the protein production result is listed as “not failed”.

For “MLIGIDLGTTNSAVALWHEGEARLVPNSLGALLTPSAVSVLQDGTTLVGAAAFERMAAKDGAAATSFKRLLGTDRKVRLGRKEFSAEDLSALVLQSLCADVEAHTGERPTEAVITVPAYFNDRQRKATRRAGELAGLSVRRLINEPTAAALAFGLKDKAEREPFLVFDLGGGTFDVSIVEMFEGIVEVRASAGDNRLGGDDFNGALAMAVKGRLDPDERLATLGEARAQALLLQAAERTRRALTDAPEAEFAVTAGDERLSTTVTASEFEAQAEGLLRRLRDPVVRALRDSQIDAASLSEIVLVGGATRMPLVRKAITRLFGRFPNASVHPDHAVALGAAIQGGLIARDGGLEEIRITDVCPFTLGIETAEHSVRGTIQQGLFSPIIERNTPVPVSRSGVYSTMGDGQKQIAVHIYQGEAREVSGNVKLGTLSVPVPSRPAGEVSIDVRFSYDSSGLLEVDVEVPLTGTRHNLVIIDEEDRKAAKDLDARRKALAALKHHPREEAANQLLLARAERCYEEFLGDVRAVIGGRTLSFTTALDSQDPRRIADAAAELAELLDMLEANPVL”, the protein production entry is “failed”.

“MLIGPYTHDAFMEEARKFHGYPAPGLIIGGYMVEMARRALPEGILFDAISETGQCLPDAVQMLTPCTIGNGWLRIRNFGLYALSLFDKHTGVGVRVHIDSQKLERFPEIKAWFLKLKPKREQDTERLQQEIREAAFDLLTLRPVTIRPDALGHGGKGGTIVACPLCGEYHPSAFGGICRSCQGESPYEVGPGLSFPGQPELRAVPVEEAVGKHALHDMTRIVPGESKGAEFVAGQELGAGDVCRLQMMGRNRVYVREETGDMQGWVHEDEAARAFGELMPGDGIEPEGPVREGKINFRATRDGVLVVDTRRLEQFNLVPDVMCATRHTHGVVLAGTRVAGTRAIPLYLSTLNLAKATTLLEGGPLFSVAPMRKAKVGVLVTGTEVFRGIIEDKFAPIITQKANQLGCDMAGTVIAPDDAPLITRGVHDLLAAGADLIVTTAGLSVDPDDMTRKGLLDAGLTEMLHGVPVLPGTMTLIGRIGGAQVIGVPACALFFKTTALDLLLPRLLAGLSVTRLDLARMGHGGLCMECRSCSFPKCPFGRG”: the protein production entry is reported as “failed”.

Turning to “MLIIAILCLGLLVAQGVASLILLSRLVKGARRRSPLAPVFLPEEGVRNVSVVVPTLNEAARVTPCLLGLAQQGPPLREILVVDSRSTDGTQAVVQARQKDNPRLQLLTDDPLPDNWVGRPWALNYGFRHSDPASEWILGIDADTQPQPGLVASVVQAAEEENYDILSLSPQFILQSPGEWWLQPALLMTLLYRFESAGVREQAPETVMANGQCFLCRRLVLEALGGYELAARSFCDDVTLARVAAQRGYRVGFLDGANLIRVRMYEGIGETWREWGRSLDLKDATVPARLWAEVIFLLLVQGLPILFFSLLLMLWGEDFDFLTLRLAIALNGFLLLVRWGMLLAIYPSYYRPSEKGAWSYWLSPLADPLAVTRIIISASQTPKQWRGRIYPGAS”, the protein production result was “failed”.

As to “MLIIFASGFALRAGTVTVAGVYSEAHYQPLMYDMDSYYNLRLASNLLNEGELSEGGWDRYSYYPPGVPLDYPPLLPHLTVTLYLLFTWLLPGLTDTAFWLPAIIAPLAGVAVFAAARSLDCDDVSATTAGLLATAAPFYFMRTIPGFYDTDMFNLVLPLAILLTLHLSLRDGDWRMAVLSGALMGVFAAAWNGWQLIYSIMALSVILHSLLYRRREPLIFLITSTLLIVLMDPRAIPSIPVGLMKIPVARADPFPDPYANITELQRPGFDDVLMALGPGLLLAGLAGFRSLFRDWRDSMVLPVIILWTLTGAASLLWGIRFSELLTAPLLITSALFLADLGTASRVPPGFRRKLHVAVAIMVVLPSLIISTGQYSALHPRVDDGLLDAADYIRAKTPPDTVVISNWVHGHFFAFMARRPVNFDGRLAYIETAAKRGPGYPLDPRIPGVYREYWHDPGPNDHGPHLADEILSMLASSGDEAYLEVLNATGDPAGSAVILGDVLAVDGSSRAEYLQDRGLDPVASGRVASTLSRRSGYVLVTCDRLIDKGYWILYYGNWNFTGKTRKPVYSTGSIVQGWPLRTSDGLLWDGERISFNGLRVSELYLVDGGVRKVEGDPQGGLVAFVLYDRNRTVVLERGYEDSMFARLVLLGDGGGVFRAVMRSRDVTVWEPIRDWNT”, the protein production result is recorded as “failed”.

For the sequence “MLIILFLIQMILIVKALGLKGLFIFLALIFGLFVLCKVSLKVKLPRNKYSKVTWEDMPWLYDGVARMANKARISTPNIYIEDNPIPTAYSFQNSIVLSAGLLEILNEEEVLAVAAHEIGHIKNGDTVLFPLLRYGKYIMGIITAIIVIFATGFITKVVSFLVFVIYAFSLLKFLRKREFLADRVALQIAEVPYALKSALEELKFYEEALKTKEMPLPTIQPSIRREEKREPQIFPLPSTHPSYDERIARIIAIVEMYRRLEFLN”, the protein production entry is given as “failed”.

Take “MLIILTGLPSVGKSTFSKAFSKKMAEKNIDNIILGTDLIRESFPVWKESYEEFIRDSNNYLIKEALENKFSVIVDDTNYYNSKRRDLMNIAKECDTNYVTIYLKAPLNLLLKRNIERGQKIPNEVIKNMYEKFDTPGTKYAWDLPDITVDTTEKIDYNEILNEILEINENKNLKIEEDKIPKSEPVESDLVKIDSLTRNIVGNLIKTGKIDKKDIKLLSEIRKSFLKDCKKIESEKLDFEKIEKDFLDYLNKNLK”: the protein production result is “failed”.

Take “MLIKKNALSILKIVFPIAVLLFVIYQSKKELTNLSFKRTLMVINGLERTDLFMLVLIGLLAVAAMSLYDYVLKYSLRLSITNGKVFRVSWIANSFNNVLGFGGLAGVGLRMMFYKEHTKDHKALVKGIAWLTSSMLLGLSVFSIFVAARVLPVDEVIHEKPWLWAVVIGFALILPLSLAVSKIKDRKAGDEENADKVKNPIFAYIGASVVEWLMAGTRHLFCFVRYGHSCRYQVCVRGVRHCGDRRNDQPRAGRLRLV”: the protein production entry is given as “failed”.

For “MLIKLTGGTVYDPANGIDGQVRNLFIRDGRIVHSLNGATPDQEYDLRGKVVMAGAIDMHTHIGGGKVTIARNLLPEDHRADPEPRRGLMRAGCGHAAPSTLTTGYRYAEMGYTAGFEPAVLPINARQAHMEMADVPLLDVGGYVMLGSDDFFLRLLSAGSDQKLINDYVAWTIRSAKAIGIKVVNPGGISAFKFNQRMLDLDEKHVYYGVTPRQILKSLARAVHELGVPHPLHVHGCNLGVPGNVETTLNTISGIEGLPMHLTHIQFHSYGVEGDRKFSSGAARIAEAINANKNITIDVGQILFGQTVTASGDSMRQHANAGHAHPDKWVCMDIECDAGCGVVPFKYRDKNFVNALQWCIGLETFLLIDDPWRVFLTTDHPNGAPFTTYPHLIRLLMDKSFRNDMLATINPEAAALSTLGSIDREYSLYEIAIMTRAGAARLLGLTDRGHLGAGAAADITVYTDQADKEKMFTRPDYVFKDGELVVRNGEVVKVVWGNLHTVQPEFDNGIEARLRDYFDRYHTMKLDNFVINDWEIEGDGRSKILVHPCHQGTRSLEHHHHHH”, the protein production result is “failed”.

Consider “MLILKNSMASPHPFPWPQRFTVMALTFAWGLSLPVLAQTKSAVQWYNDGVDKLAAQNFSGAIADFTESIKLNDQDADAYYNRGYAKHVLGQYQAAITDYNQAISLNPEFAYALGNRCYAYFLLSQYDKAIQDCSNAIEINPNYADFYVYRGNSQSQLGNETTAIADYNDAIRINAQHANAYYNRALTHNRLKQDQQALADYNQSIQLDPDSAEAYFNRGLTQYRLGDEPKAIADLTKAAELFNAQEKKDMAQKAEAILTQIRAIDA”, for which the protein production entry was “failed”.
